Legend:
[1] = biological target: TEBP-1-His5 (Caenorhabditis elegans) (UniProt O62329); test: fluorescence polarization; conditions: FP: 20 mM HEPES pH 7.0, 100 mM NaCl, 5% glycerol, 20 nM probe, 10 min at RT; pull-down: 50 mM Tris/HCl pH 7.5, 150 mM NaCl, 0.5% NP-40, 5 mM MgCl2, 1 mM DTT …
[2] = biological target: TEBP-2-His5 (Caenorhabditis elegans) (UniProt Q22429); test: fluorescence polarization; conditions: FP: 20 mM HEPES pH 7.0, 100 mM NaCl, 5% glycerol, 20 nM probe, 10 min at RT; pull-down: 50 mM Tris/HCl pH 7.5, 150 mM NaCl, 0.5% NP-40, 5 mM MgCl2, 1 mM DTT …
TEBP-2-His5 (Caenorhabditis elegans), sequence (Q22429 entry or part of it): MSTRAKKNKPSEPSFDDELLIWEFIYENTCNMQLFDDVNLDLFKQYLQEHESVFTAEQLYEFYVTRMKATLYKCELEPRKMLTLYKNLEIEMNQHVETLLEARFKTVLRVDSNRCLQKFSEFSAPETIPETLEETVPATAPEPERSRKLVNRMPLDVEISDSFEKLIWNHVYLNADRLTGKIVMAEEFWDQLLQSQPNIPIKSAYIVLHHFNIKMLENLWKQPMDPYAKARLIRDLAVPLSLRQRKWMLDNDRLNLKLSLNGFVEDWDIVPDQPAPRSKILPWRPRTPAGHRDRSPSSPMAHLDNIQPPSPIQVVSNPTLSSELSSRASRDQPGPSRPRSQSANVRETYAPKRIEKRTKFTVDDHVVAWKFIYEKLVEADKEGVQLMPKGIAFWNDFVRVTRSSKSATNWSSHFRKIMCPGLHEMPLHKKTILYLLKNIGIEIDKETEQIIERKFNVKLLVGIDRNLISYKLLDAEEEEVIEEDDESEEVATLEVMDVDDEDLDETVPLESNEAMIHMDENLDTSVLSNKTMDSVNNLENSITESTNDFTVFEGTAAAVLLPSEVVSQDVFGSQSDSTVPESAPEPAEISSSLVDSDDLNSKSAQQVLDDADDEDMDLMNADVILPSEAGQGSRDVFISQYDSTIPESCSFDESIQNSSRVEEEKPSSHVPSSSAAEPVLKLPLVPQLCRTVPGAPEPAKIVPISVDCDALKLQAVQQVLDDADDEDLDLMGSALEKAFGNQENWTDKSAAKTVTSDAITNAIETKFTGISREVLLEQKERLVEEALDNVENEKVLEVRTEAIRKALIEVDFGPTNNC

Sequence: CTGTTAGGCTTAGGCTTAG (double strand) [2.5x TTAGGC ds]
- Kd [1]: 129 nM
- Kd [2]: 37.8 nM

Source: paper PMC8113555
